Test results as given in the supplement of paper PMC9876800.

Test system: peptide library, one residue held at a place counted from the S/T acceptor
Assay: relative phosphorylation of the sub-library (ratio to the mean residue at this position); higher = residue favoured
Procedure, shortened: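 Purified recombinant kinases (human or orthologue constructs) were incubated in 384-well plates with biotinylated degenerate peptide sub-libraries, each fixing one residue at one position around a central Ser/Thr. Peptides were at 50 μM, with 50 μM ATP spiked with γ-32P-ATP, for 90 min under kinase-specific conditions. Spots on streptavidin membranes were phosphorimaged and quantified by densitometry. Relative sub-library phosphorylation is a ratio to the mean residue at that position.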

Chain of CDK12, construct: aa714-1063, human (Q9NYV4 714-1063, looked up): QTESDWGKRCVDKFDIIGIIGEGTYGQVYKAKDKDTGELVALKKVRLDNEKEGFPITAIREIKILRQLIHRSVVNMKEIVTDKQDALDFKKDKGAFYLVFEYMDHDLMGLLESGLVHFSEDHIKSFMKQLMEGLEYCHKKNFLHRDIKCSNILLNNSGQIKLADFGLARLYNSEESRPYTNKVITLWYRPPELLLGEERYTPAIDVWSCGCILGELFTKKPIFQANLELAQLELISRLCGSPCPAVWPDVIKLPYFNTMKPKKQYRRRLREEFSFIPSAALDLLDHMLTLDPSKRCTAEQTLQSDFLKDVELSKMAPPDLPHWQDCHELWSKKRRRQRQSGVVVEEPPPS
Chain of MAPKAPK5, construct: Full length, human (Q8IW41 whole entry, looked up): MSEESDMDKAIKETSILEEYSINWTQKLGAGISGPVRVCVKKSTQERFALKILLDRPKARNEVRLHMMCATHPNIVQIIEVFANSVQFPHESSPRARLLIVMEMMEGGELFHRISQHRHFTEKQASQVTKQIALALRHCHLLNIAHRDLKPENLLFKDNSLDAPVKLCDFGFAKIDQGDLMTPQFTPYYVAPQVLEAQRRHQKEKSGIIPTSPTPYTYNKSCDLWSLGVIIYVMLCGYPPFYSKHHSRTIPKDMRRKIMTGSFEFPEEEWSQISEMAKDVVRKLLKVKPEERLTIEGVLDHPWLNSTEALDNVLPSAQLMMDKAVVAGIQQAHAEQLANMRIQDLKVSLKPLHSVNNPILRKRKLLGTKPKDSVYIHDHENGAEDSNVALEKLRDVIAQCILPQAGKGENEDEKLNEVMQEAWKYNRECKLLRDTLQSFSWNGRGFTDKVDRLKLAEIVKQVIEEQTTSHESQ
Chain of CDKL5, construct: aa1-352, mouse (Q3UTQ8 1-352, looked up): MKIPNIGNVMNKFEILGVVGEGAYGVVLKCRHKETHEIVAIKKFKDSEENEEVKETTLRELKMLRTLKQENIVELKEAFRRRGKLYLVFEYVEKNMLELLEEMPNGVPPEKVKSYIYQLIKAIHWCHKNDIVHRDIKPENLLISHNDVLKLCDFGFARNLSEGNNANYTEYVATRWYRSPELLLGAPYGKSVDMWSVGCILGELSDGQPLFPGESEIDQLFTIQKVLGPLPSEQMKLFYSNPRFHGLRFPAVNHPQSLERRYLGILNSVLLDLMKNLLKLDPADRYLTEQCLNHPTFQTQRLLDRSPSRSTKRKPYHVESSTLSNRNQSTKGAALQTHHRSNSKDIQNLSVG

CDK12, construct: aa714-1063, human (from UniProt Q9NYV4)
relative phosphorylation
Settings	at +1	at +2	at +3	at +4	at -1	at -2	at -3	at -4	at -5
A fixed	0.323	0.895	0.799	0.848	1.09	1.19	1.04	1.11	1.13
D fixed	0.154	0.546	0.392	0.912	0.38	0.47	0.629	0.861	0.879
E fixed	0.155	0.5	0.446	0.923	0.438	0.456	0.707	0.9	0.735
F fixed	0.341	0.984	0.553	0.891	0.844	0.667	0.778	1.07	1.21
G fixed	0.715	1.28	0.854	1.43	1.58	1.7	2.58	1.27	1.09
H fixed	0.261	1.21	1.79	1.44	0.876	0.811	0.897	1.04	1.01
I fixed	0.309	0.911	0.929	0.828	0.364	0.973	0.971	0.891	0.868
K fixed	0.27	1.34	0.977	0.804	1.01	0.659	0.63	0.832	0.847
L fixed	0.36	0.853	0.545	0.765	0.834	0.863	0.754	0.946	0.939
M fixed	0.357	1.16	0.523	0.832	1.65	1.28	0.819	1.04	0.924
N fixed	0.227	0.992	0.721	0.973	0.801	0.713	0.686	0.893	0.82
P fixed	12.1	0.747	1.26	0.992	1.08	1.84	1.33	1.06	1.28
Q fixed	0.243	0.828	0.709	0.889	0.982	0.738	0.637	0.763	0.883
R fixed	0.281	1.77	3.97	0.962	2.34	1.58	1.75	1.02	1.03
V fixed	0.319	0.846	0.71	0.73	0.467	0.906	0.762	0.784	0.899
W fixed	0.283	0.933	0.881	1.58	1.1	1.2	0.927	1.35	1.19
Y fixed	0.274	1.2	0.934	1.21	1.17	0.956	1.1	1.19	1.27
pThr fixed	0.363	0.528	0.566	0.999	0.336	0.48	0.83	0.846	0.975
pTyr fixed	0.378	0.504	0.859	1.29	1.16	0.719	0.908	0.998	0.975

CDKL5, construct: aa1-352, mouse (from UniProt Q3UTQ8)
relative phosphorylation
Settings	at +1	at +2	at +3	at +4	at -1	at -2	at -3	at -4	at -5
A fixed	4.03	0.798	1.01	0.928	1.15	0.826	0.761	1.03	1.12
D fixed	0.548	0.548	0.634	0.701	0.779	0.559	0.412	0.625	0.556
E fixed	0.528	0.56	0.567	0.593	0.581	0.543	0.427	0.652	0.543
F fixed	0.588	0.903	1.03	1.02	0.782	0.665	0.49	0.866	1.07
G fixed	1.51	0.936	1.03	1.07	1.22	1.06	0.65	1.04	1.24
H fixed	0.679	1.32	0.979	1.19	0.916	0.7	0.61	0.928	1.17
I fixed	0.584	0.853	0.914	0.915	0.812	0.681	0.559	0.9	0.958
K fixed	0.861	1.77	1.42	1.25	1.49	0.976	0.826	1.46	1.24
L fixed	0.564	0.851	0.896	0.925	1.04	0.817	0.516	0.938	0.974
M fixed	0.6	0.832	0.876	0.94	1.08	0.718	0.531	0.997	0.972
N fixed	0.592	0.924	0.895	1.01	0.737	0.575	0.6	0.861	0.8
P fixed	2.33	0.697	1.07	1.09	1.11	5.09	0.758	1.1	0.909
Q fixed	0.704	0.903	0.926	0.909	1.1	0.693	0.658	1.03	0.854
R fixed	1.06	2.48	1.71	1.51	1.49	1.05	7.65	1.9	1.65
V fixed	0.624	0.757	1.01	0.798	0.885	0.715	0.538	0.977	0.88
W fixed	0.631	0.828	0.852	1.17	1.04	0.691	0.515	0.847	1.07
Y fixed	0.563	1.04	1.19	0.987	0.794	0.645	0.499	0.844	0.994
pThr fixed	0.581	0.54	0.682	0.65	0.567	0.588	0.456	0.785	0.702
pTyr fixed	0.522	0.61	0.636	0.626	0.53	0.534	0.458	0.652	0.594

DYRK1A, construct: aa147-185, human (from UniProt Q13627)
relative phosphorylation
Settings	at +1	at +2	at +3	at +4	at -1	at -2	at -3	at -4	at -5
A fixed	0.555	0.855	0.76	0.819	1.27	1.63	0.864	0.989	0.962
D fixed	0.289	0.642	0.666	0.794	0.556	0.35	0.461	0.768	0.695
E fixed	0.286	0.461	0.598	0.768	0.59	0.348	0.372	0.879	0.674
F fixed	0.557	1.42	1.41	1.97	0.736	0.452	0.417	0.814	1.06
G fixed	0.692	1.03	1	1.09	0.983	0.826	1.08	1.06	1.1
H fixed	0.506	1.23	1.37	1.07	1.13	0.589	0.674	1.01	1.2
I fixed	0.488	1.4	0.957	1.01	0.726	0.605	0.387	0.928	1
K fixed	0.631	0.679	0.626	0.801	1.31	0.712	0.739	1.1	1.05
L fixed	0.463	1.6	1.36	1.04	0.887	0.785	0.467	0.936	0.92
M fixed	0.554	1.29	1.24	1.23	1.21	0.659	0.456	0.964	0.918
N fixed	0.471	0.79	0.789	0.893	0.849	0.641	0.5	0.871	0.876
P fixed	8.74	0.803	1.94	0.87	1.87	4.42	0.564	1.04	1.16
Q fixed	0.475	0.721	0.882	0.861	0.998	0.608	0.618	0.891	0.95
R fixed	0.783	0.811	0.725	0.714	1.46	2.63	8.09	2.1	1.73
V fixed	0.537	1.27	0.761	0.86	0.907	0.805	0.366	0.726	0.767
W fixed	0.54	0.941	1.03	1.23	0.708	0.486	0.497	0.934	0.814
Y fixed	0.432	1.06	0.877	0.976	0.815	0.454	0.444	1	1.13
pThr fixed	0.379	0.562	0.556	0.773	0.374	0.487	0.391	0.789	0.805
pTyr fixed	0.441	0.547	0.598	0.87	0.612	0.419	0.45	0.782	0.791

MAPKAPK5, construct: Full length, human (from UniProt Q8IW41)
relative phosphorylation
Settings	at +1	at +2	at +3	at +4	at -1	at -2	at -3	at -4	at -5
A fixed	0.697	1.12	1.09	0.728	0.899	1.63	0.654	0.868	0.78
D fixed	0.317	1.3	0.82	1.17	0.706	0.282	0.157	0.486	0.433
E fixed	0.474	1.29	0.757	1.01	0.557	0.442	0.171	0.864	0.313
F fixed	1.17	0.746	1.48	0.96	0.965	0.679	0.639	1.11	1.79
G fixed	0.396	0.947	0.903	1.05	0.427	1.07	0.5	0.658	0.527
H fixed	1.13	1.11	1.01	1.17	1.22	0.742	1.14	1.03	0.763
I fixed	1.38	0.921	0.694	0.883	1.18	0.522	0.228	0.834	1.24
K fixed	0.641	0.729	0.646	0.917	0.966	0.769	0.754	1.23	0.777
L fixed	1.02	0.704	0.819	0.794	1.33	1.16	0.521	1.19	1.59
M fixed	1.15	1	1.05	0.912	1.8	1.77	0.816	1.27	1.27
N fixed	0.552	1.08	0.687	0.986	1.09	0.903	0.341	0.642	0.633
P fixed	0.338	0.956	1.46	1.25	0.529	0.292	0.322	0.512	0.748
Q fixed	1.13	1.23	0.672	0.898	0.935	2.85	0.696	0.93	0.62
R fixed	0.931	0.972	0.602	0.968	1.38	1.55	7.97	1.32	1.28
V fixed	1.84	1.24	1.1	0.768	1.04	0.608	0.267	0.813	0.894
W fixed	2.06	0.716	1.48	1.41	0.822	0.861	0.935	1.82	1.89
Y fixed	1.78	0.942	1.73	1.14	1.17	0.862	0.885	1.43	1.47
pThr fixed	0.688	0.697	0.784	1.49	0.462	0.387	0.267	0.599	0.61
pTyr fixed	2.04	1.96	1.2	1.41	1.28	1.36	0.297	1.26	0.914
